Sequences and labels used below:
B1: wild-type KaiA of Synechococcus elongatus PCC 7942 (natural protein)
chain: MLSQIAICIWVESTAILQDCQRALSADRYQLQVCESGEMLLEYAQTHRDQIDCLILVAANPSFRAVVQQLCFEGVVVPAIVVGDRDSEDPDEPAKEQLYHSAELHLGIHQLEQLPYQVDAALAEFLRLAPVETMADHIMLMGANHDPELSSQQRDLAQRLQERLGYLGVYYKRDPDRFLRNLPAYESQKLHQAMQTSYREIVLSYFSPNSNLNQSIDNFVNMAFFADVPVTKVVEIHMELMDEFAKKLRVEGRSEDILLDYRLTLIDVIAHLCEMYRRSIPRET
notes: KaiA, Synechococcus elongatus PCC 7942; expressed from pGEX-6P-1; Plasmid provided by Dr. Carl Johnson; also called the wild-type KaiA
B2: KaiA-3-1 (natural protein, Synechococcus elongatus PCC 7942)
chain: MLSQIAICIWVESTAILQDCQRALSADRYQLQVCESGEMLLEYAQTHRDQIDCLILVAANPSFRAVVQQLCFEGVVVPAIVVGDRDSEDPDEPAKEQLYHSAELHLGIHQLEQLPYQVDAALAEFLRLAPVETMADHIMLMGANHDPELSSQQRDLAQRLQERLGYLGVYYKRDPDRFLRNLPAYESQKLHQAMQTSYREIVLSYFSPNSNLNQSIDNFVNMAFFADVPVTKVVEIHMELMDEFAKKLRVEGHKEDFLLDYRLTLIDVIAHLCEMYRRSIPRET
notes: KaiA, Synechococcus elongatus PCC 7942, with the mutations of Cluster III; The oligomer state is said to be the same as that of the wild type; also called KaiA mutant of Cluster III
B3: KaiA-2-1 (natural protein, Synechococcus elongatus PCC 7942)
chain: MLSQIAICIWVESTAILQDCQRALSADRYQLQVCESGEMLLEYAQTHRDQIDCLILVAANPSFRAVVQQLCFEGVVVPAIVVGDRDSEDPDEPAKEQLYHSAELHLGIHQLEQLPYQVDAALAEFLRLAPVETMADHIMLMGANHDPELSSQQRDLAQRLQERLGYLGVYYKRDPDRFLRNLPAYESQKLHQAMQTSYREIVLSYFSPNSNLNQSIDNFVNMAFFADVPVTKVVEIHMELMDEFAKKLRVEGRSEDILQDYRLTLIDVIAHLCEMYRRSIPRET
notes: KaiA, Synechococcus elongatus PCC 7942, with the mutation of Cluster II; The oligomer state is said to be the same as that of the wild type; also called KaiA mutant of Cluster II
B4: KaiA-1-1 (natural protein, Synechococcus elongatus PCC 7942)
chain: MLSQIAICIWVESTAILQDCQRALSADRYQLQVCESGEMLLEYAQTHRDQIDCLILVAANPSFRAVVQQLCFEGVVVPAIVVGDRDSEDPDEPAKEQLYHSAELHLGIHQLEQLPYQVDAALAEFLRLAPVETMADHIMLMGANHDPELSSQQRDLAQRLQERLGYLGVYYKRDPDRFLRNLPAYESQKLHQAMQTSYREIVLSYFSPNSNLNQSIDNFVNMAFFADVPVTKVVEIHMNLMDEFWKKLRVEGRSEDILLDYRLTLIDVIAHLCEMYRRSIPRET
notes: KaiA, Synechococcus elongatus PCC 7942, with the mutations of Cluster I; R249 belongs to the cluster but was not mutated; The oligomer state is said to be the same as that of the wild type; also called KaiA mutant of Cluster I
B5: wild-type KaiC of Synechococcus elongatus PCC 7942 (enzyme)
chain: MTSAEMTSPNNNSEHQAIAKMRTMIEGFDDISHGGLPIGRSTLVSGTSGTGKTLFSIQFLYNGIIEFDEPGVFVTFEETPQDIIKNARSFGWDLAKLVDEGKLFILDASPDPEGQEVVGGFDLSALIERINYAIQKYRARRVSIDSVTSVFQQYDASSVVRRELFRLVARLKQIGATTVMTTERIEEYGPIARYGVEEFVSDNVVILRNVLEGERRRRTLEILKLRGTSHMKGEYPFTITDHGINIFPLGAMRLTQRSSNVRVSSGVVRLDEMCGGGFFKDSIILATGATGTGKTLLVSRFVENACANKERAILFAYEESRAQLLRNAYSWGMDFEEMERQNLLKIVCAYPESAGLEDHLQIIKSEINDFKPARIAIDSLSALARGVSNNAFRQFVIGVTGYAKQEEITGLFTNTSDQFMGAHSITDSHISTITDTIILLQYVEIRGEMSRAINVFKMRGSWHDKAIREFMISDKGPDIKDSFRNFERIISGSPTRITVDEKSELSRIVRGVQEKGPES
notes: KaiC, Synechococcus elongatus PCC 7942; expressed from pGEX-6P-1; The sample is a mixture of phosphorylated and de-phosphorylated KaiC (sites T432 and S431); also called the wild-type KaiC
B6: KaiC-3-1 (enzyme, Synechococcus elongatus PCC 7942)
chain: MTSAEMTSPNNNSEHQAIAKMRTMIEGFDDISHGGLPIGRSTLVSGTSGTGKTLFSIQFLYNGIIEFDEPGVFVTFEETPQDIIKNARSFGWDLAKLVDEGKLFILDASPDPEGQEVVGGFDLSALIERINYAIQKYRARRVSIDSVTSVFQQYDASSVVRRELFRLVARLKQIGATTVMTTERIEEYGPIARYGVEEFVSDNVVILRNVLEGERRRRTLEILKLRGTSHMKGEYPFTITDHGINIFPLGAMRLTQRSSNVRVSSGVVRLDEMCGGGFFKDSIILATGATGTGKTLLVSRFVENACANKERAILFAYEESRAQLLRNAYSWGMDFEEMERQNLLKIVCAYPESAGLEDHLQIIKSEINDFKPARIAIDSLSALARGVSNNAFRQFVIGVTGYAKQEEITGLFTNTSDQFMGAHSITDSHISTITDTIILLQYVEIRGEMSRAINVFKMRGSWHDKAIREFMISDKGPDIKDSFRNFERIISGVPHRITVDEKSELSRIVRGVQEKGPES
notes: KaiC, Synechococcus elongatus PCC 7942, with the mutations of Cluster III; The oligomer state is said to be the same as that of the wild type; also called KaiC mutant of Cluster III
B7: KaiC-2-1 (enzyme, Synechococcus elongatus PCC 7942)
chain: MTSAEMTSPNNNSEHQAIAKMRTMIEGFDDISHGGLPIGRSTLVSGTSGTGKTLFSIQFLYNGIIEFDEPGVFVTFEETPQDIIKNARSFGWDLAKLVDEGKLFILDASPDPEGQEVVGGFDLSALIERINYAIQKYRARRVSIDSVTSVFQQYDASSVVRRELFRLVARLKQIGATTVMTTERIEEYGPIARYGVEEFVSDNVVILRNVLEGERRRRTLEILKLRGTSHMKGEYPFTITDHGINIFPLGAMRLTQRSSNVRVSSGVVRLDEMCGGGFFKDSIILATGATGTGKTLLVSRFVENACANKERAILFAYEESRAQLLRNAYSWGMDFEEMERQNLLKIVCAYPESAGLEDHLQIIKSEINDFKPARIAIDSLSALARGVSNNAFRQFVIGVTGYAKQEEITGLFTNTSDQFMGAHSITDSHISTITDTIILLQYVEIRGEMSRAINVFKMRGSWHDKAIREFMISDKGPDIKDSFRNFERIISGSPTRVTTDEKTELSRIVRGVQEKGPES
notes: KaiC, Synechococcus elongatus PCC 7942, with the mutations of Cluster II; The oligomer state is said to be the same as that of the wild type; also called KaiC mutant of Cluster II
B8: KaiC-1-1 (enzyme, Synechococcus elongatus PCC 7942)
chain: MTSAEMTSPNNNSEHQAIAKMRTMIEGFDDISHGGLPIGRSTLVSGTSGTGKTLFSIQFLYNGIIEFDEPGVFVTFEETPQDIIKNARSFGWDLAKLVDEGKLFILDASPDPEGQEVVGGFDLSALIERINYAIQKYRARRVSIDSVTSVFQQYDASSVVRRELFRLVARLKQIGATTVMTTERIEEYGPIARYGVEEFVSDNVVILRNVLEGERRRRTLEILKLRGTSHMKGEYPFTITDHGINIFPLGAMRLTQRSSNVRVSSGVVRLDEMCGGGFFKDSIILATGATGTGKTLLVSRFVENACANKERAILFAYEESRAQLLRNAYSWGMDFEEMERQNLLKIVCAYPESAGLEDHLQIIKSEINDFKPARIAIDSLSALARGVSNNAFRQFVIGVTGYAKQEEITGLFTNTSDQFMGAHSITDSHISTITDTIILLQYVEIRGEMSRAINVFKMRGSWHDKAIREFMISDKGPDIKDSFRNFERIISGSPTRITVDERSELSRIVRGVQEKGPES
notes: KaiC, Synechococcus elongatus PCC 7942, with the mutation of Cluster I; The oligomer state is said to be the same as that of the wild type; also called KaiC mutant of Cluster I

The Kd is the free concentration of one partner at which half of the binding sites on the other are occupied at equilibrium, for simple one-to-one binding.

The target in one series is KaiC (Synechococcus elongatus) (UniProt Q79PF4).
Experiment: not given
Conditions: cited from earlier work.
Regarding KaiA (from UniProt Q79PF6), the Kd is 2.5 µM.

The next series deals with the molecule itself. The series is described as follows: native gel or EMSA; 8% native gel of the purified proteins, to analyse their oligomerization statuses.
Conditions: not given
In the case of B1, the binding result is reported as “binds”.

In the case of B2, the binding result is “binds”.

Turning to B3, the binding result is given as “binds”.

B4: the binding result is recorded as “binds”.

As to B5, the binding result is reported as “binds”.

Regarding B6, the binding result is listed as “binds”.

With B7, the binding result is “binds”.

With B8, the binding result is recorded as “binds”.
